Experimental data published in PMC4327562, “Emergence of terpene cyclization in Artemisia annua” (Nature Communications, 2015).

Tested on: CC(C)=CCC/C(C)=C/CC/C(C)=C/CO[P@@](=O)(O)OP(=O)(O)O
Test: purified protein
Conditions: 5 mM MgCl2, pH 7.0, 30 °C, inorganic pyrophosphatase coupled

Chain of (E)-β-farnesene synthase (BFS), A. annua BFS (Artemisia annua) (chain, as listed by the source): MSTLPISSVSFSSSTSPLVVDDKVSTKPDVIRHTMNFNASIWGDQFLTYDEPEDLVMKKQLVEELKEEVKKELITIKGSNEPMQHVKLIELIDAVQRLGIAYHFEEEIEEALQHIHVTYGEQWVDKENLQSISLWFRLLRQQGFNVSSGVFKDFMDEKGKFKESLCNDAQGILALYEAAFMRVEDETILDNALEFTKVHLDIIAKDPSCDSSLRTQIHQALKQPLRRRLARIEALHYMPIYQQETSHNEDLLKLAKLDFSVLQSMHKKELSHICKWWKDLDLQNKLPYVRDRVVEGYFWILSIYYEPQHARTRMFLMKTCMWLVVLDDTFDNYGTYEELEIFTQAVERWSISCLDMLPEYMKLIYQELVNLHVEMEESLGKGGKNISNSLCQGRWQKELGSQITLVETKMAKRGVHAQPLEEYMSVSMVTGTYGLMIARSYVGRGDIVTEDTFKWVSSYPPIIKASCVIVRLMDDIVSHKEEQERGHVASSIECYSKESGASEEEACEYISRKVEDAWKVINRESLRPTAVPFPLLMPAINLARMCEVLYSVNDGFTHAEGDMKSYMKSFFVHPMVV

## (E)-β-farnesene synthase (BFS), A. annua BFS (Artemisia annua)
  Km: 16.19 µM
  kcat: 0.17 s⁻¹
  kcat/Km: 10500 M⁻¹ s⁻¹
